# Test results: patent US20160053014A1 (SORRENTO THERAPEUTICS, published 2016)
# T1: murine CXCR5 (murine, UniProt Q04683 1-374)
# T1 construct: whole, on cells; Endogenous receptor on mouse spleen cells cultured with LPS
# T1 sequence (looked up): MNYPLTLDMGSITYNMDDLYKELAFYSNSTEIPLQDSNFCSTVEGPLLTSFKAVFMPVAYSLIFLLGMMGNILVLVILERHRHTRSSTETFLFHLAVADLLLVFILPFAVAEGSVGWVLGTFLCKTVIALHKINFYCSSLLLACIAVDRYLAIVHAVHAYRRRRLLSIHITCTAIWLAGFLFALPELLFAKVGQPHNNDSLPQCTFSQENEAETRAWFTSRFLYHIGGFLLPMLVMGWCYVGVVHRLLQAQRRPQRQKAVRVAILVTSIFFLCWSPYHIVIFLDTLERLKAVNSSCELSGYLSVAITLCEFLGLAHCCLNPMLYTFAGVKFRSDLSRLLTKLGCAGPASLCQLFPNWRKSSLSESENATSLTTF
# T2: human CXCR5 (human, UniProt P32302 1-372)
# T2 construct: whole, on cells; also called hu-CHO; CHO-CXCR5 cells
# T2 sequence (looked up): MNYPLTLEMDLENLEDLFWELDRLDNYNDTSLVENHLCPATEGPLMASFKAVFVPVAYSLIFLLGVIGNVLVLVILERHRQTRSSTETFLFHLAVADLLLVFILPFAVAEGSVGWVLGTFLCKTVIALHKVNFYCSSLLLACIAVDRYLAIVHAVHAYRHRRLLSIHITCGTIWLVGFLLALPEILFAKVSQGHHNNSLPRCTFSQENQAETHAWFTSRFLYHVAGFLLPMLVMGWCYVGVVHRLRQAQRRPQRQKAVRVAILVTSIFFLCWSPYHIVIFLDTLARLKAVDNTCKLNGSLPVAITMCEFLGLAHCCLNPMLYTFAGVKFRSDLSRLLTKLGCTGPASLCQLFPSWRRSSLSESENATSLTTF
# B1: 11G3 (antibody, V domains shown)
# VH: EVQLVQSGGGVVQPGRSLRLSCAASGFTFSSYAMHWVRQAPGKGLEWVAVISYDGSNKYYADSVKGRFTISRDNSKNTLYLQMNSLRAEDTAVYYCARLTRGSDYYGSGRSMNDYWGQGTLVTVSS
# VL: DIVMTQTPLSLPVTLGQPASISCRSSQSLVHSDGNTYLNWFQQRPGQSPRRLIYKVSNRDSGVPDRFSGSGSGTDFTLKISRVEAEDVGVYYCMQGTHWPPTFGQGTKVEIK
# notes: tested as human IgG
# B2: 11E3 (antibody, V domains shown)
# VH: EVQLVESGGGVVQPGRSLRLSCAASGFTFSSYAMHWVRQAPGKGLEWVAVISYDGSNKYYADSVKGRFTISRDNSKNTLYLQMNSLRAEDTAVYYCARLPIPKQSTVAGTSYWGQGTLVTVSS
# VL: LPVLTQPASVSGSPGQSITISCTGTSSDVGGYNYVSWYQQHPGNAPKLMIYDVSNRPSGVSNRFSGSKSGNTASLTISGLQAEDEADYYCSSYTSSSTLYVFGTGTKLTVL
# notes: tested as human IgG
# B3: 13E10 (antibody, V domains shown)
# VH: EVQLVQSGAEVKKPGASLKISCRASGYTFTRNYIHWVRQAPGQGLEWLGIINPNGGSTRYSQKFQGRVTMTRDTSTRTVYMELSSLRSEDTAVYYCAREAPKYCSGSSCYSGGVDYWGQGTLVTVSS
# VL: QPVLTQPLSASGTPGQRVTISCSGSSSNIGSNYVYWYQQLPGTAPKLLIYRNYQRPSGVPDRFSGSTSGTSASLAISGLRSEDEADYHCAAWDGSMRGWVFGGGTKLTVL
# notes: tested as human IgG
# B4: 14E5 (antibody, V domains shown)
# VH: EVQLVESGGGVVQPGRSLRLSCAASGFTFSSYGMHWVRQAPGKGLEWVAVISYDGSNKYYADSVKGRFTISRDNSKNTLYLQMNSLRAEDTAVYYCAKVYSRGSDYWGQGTLVTVSS
# VL: QSVLTQPASVSGSPGQSITISCTGTSSDVGGYNYVSWYQQHPGKAPKLLIYDVSRRPSGISSRFSGSKSGNTASLTISGLQTEDDGDYYCLSYTTSRAVVFGGGTKLTVL
# notes: tested as human IgG
# B5: 13E4 (antibody, V domains shown)
# VH: QITLKESGGGVVQPGRSLRLSCAASGFTFSSYGMHWVRQAPGKGLEWVAVISYDGSNKYYADSVKGRFTISRDNSKNTLYLQMNSLRAEDTAVYYCANNGWATYPDYWGQGTLVTVSS
# VL: QPVLTQPASVSGSPGQSITISCTGTSSDVGGYNYVSWYQQHPGKAPKLMIYDVSNRPSGVSNRFSGSKSGNTASLTISGLQAEDEADYYCSSYTSSSTLVFGGGTKLTVL
# notes: tested as human IgG
# B6: 16F8 (antibody, V domains shown)
# VH: EVQLLESGGGLVQPGGSLRLSCAASGFTFSSYGMHWVRQAPGKGLEWVAVISYDGSNKYYADSVKGRFTISRDNSKNTLYLQLNSLRAEDTAVYYCARGQNLDYWGQGTLVTVSS
# VL: QPVLTQPASVSGSPGQSITISCTGTSSDVGGYNYISWYQQHPGKAPKLMIYEVSNRPSGVSNRFSGSKSGNTASLTISGLQAEDEADYYCSSYRSSSTQVFGGGTKLTVL
# notes: tested as human IgG
# B7: 13F9 (antibody, V domains shown)
# VH: EVQLLESGGGLIQPGGSLRLSCAASGFIFSRYGMHWVRQAPGKGLEWVAVTSYDGRSKYYTDSVQGRFTISRDNSKNTLDLQMNSLRAEDTAVYYCARLHTVGPWHFDLWGRGTLVTVSS
# VL: SYELTQPRSVSGSPGQSVTISCTGTSSDVGGYNYVSWYQQHPGKVPKLMIYEVSNRPSGVSNRFSGSKSGNAASLTISGLQAEDEADYYCSSYTSSSTLVFGGGTKLTVL
# notes: tested as human IgG
# B8: 12C1 (antibody, V domains shown)
# VH: EVQLLESGGGLVKPGGSLRLSCAASGFTFNNYAMHWVRQAPGKGLEWLTVISFYGGKQYYADSVKGRFTISRDNSRNTLYLQMNSLRADDTAVYYCARDNGRHFDYWGQGTLVTVSS
# VL: QPVLTQPASVSGSPGQSITISCTGTSSDVGGYNYVSWYQQHPGKAPKLMIYDVSKRPSGVSNRFSGSKSGNTASLTISGLQAEDEADYYCTSYRSGRTYVFGSGTKVTVL
# notes: tested as human IgG
# B9: 11A7 (antibody, human IgG1, V domains shown)
# VH: EVQLVESGGGLVQPGGSLRLSCAASGFTVSSNYMSWVRQAPGKGLEWVSVIYSGGSTYYADSVKGRFTISRHNSKNTLYLQMNSLRAEDTAVYYCARGYVVWGQGTLVTVSS
# VL: QPVLTQPPSVSKDLRQTATLTCTGNSNNVGNQGATWLQQHQGHPPKLLSYKNNNRPSGISERFSASRSGNTASLTITGLQPEDEADYYCSAWDSSLSAWVFGGGTQLTVL
# notes: 'Antibody 11A7 is a fully human IgG1'
# B10: 12G10 (antibody, V domains shown)
# VH: EVQLVESGGGVVQPGRSLRLSCAASGFTFSSYAMHWVRQAPGKGLEWVAVISYDGSNKYYADSVKGRFTISRDNSKNTLYLQMNSLRAEDTAVYYCARIAVAGTHFDYWGQGTLVTVSS
# VL: SYELMQPPSVSGTPGQRVTISCSGSTSNVGSNTVNWYRQFPGTAPKLLIYANNQRPSGVPDRFSGSKSGTSASLAISGLQSENEADYYCAAWDDSLNGYVFGTGTKLTVL
# notes: tested as human IgG
# B11: 15G11 (antibody, V domains shown)
# VH: QVQLVQSGGGVVQPGGSLRLSCAASGFAFNRYGMHWVRQAPGQGLEWVAVISYDGSLKYYADSVKGRFTISRDNSNNTLYLQMNSLSADDTAVYYCAKGGAALDSWGQGTLVTVSS
# VL: DVVMTQSPLSSPVTLGQPASISCRSSQSLVHSDGTTYLSWLQQRPGQPPRLLIYKISNRFSGVPDRFSGSGAGTDFTLKISRVEAEDVGVYYCMQTTQFPPMFGQGTKVEIK
# notes: tested as human IgG
# B12: 12D11 (antibody, V domains shown)
# VH: EVQLVQSGAEVKKPGASVKVSCKASGYTFTGYYLNWVRQAPGQGLEWMGWINPNNGGTNYAQRFQGRVTMTRDTSISTAYMDLSRLRSDDTAVYYCVRGTRKYYHDSNGRRRDYYYGMDVWGQGTTVTVSS
# VL: AIRMTQSPSSLSASVGDRVTITCRASQSISSYLNWYQQKPGKAPKLLIYAASSLQSGVPSKFSGSGSGTEFTLTISSLQPEDFATYYCQQYKFYPPNFGGGTKVEI
# notes: tested as human IgG
# B13: 16F9 (antibody, V domains shown)
# VH: EVQLVESGGEVKKPGASVKLSCKSSGYTFTSYYMHWVRQAPGQGLEWMGIINPSGGSTSSAQKFQGRVTMTRDTSTRTVYMELSSLRSEDTAVYYCARGAPNWNYARTLFDYWGQGTLVTVSS
# VL: SYELTQPRSVSGSPGQSVTISCTGTSSDVGGYNSVSWYQQHPGKAPKLMIYDVSKRPSGVPDRFSGSKSGNTASLTISGLQAEDEADYYCSSYSSSTTHVVFGGGTKLTVL
# notes: tested as human IgG
# B14: 12D3 (antibody, V domains shown)
# VH: EVQLVESGGGLVKPGRSLRLSCAASGFTFSSYAMHWVRQAPGKGLEWVAVISYDGSNKYYADSVKGRFTISRDNSKNTLYLQMNSLRAEDTAVYYCARLRWLDYWGQGTLVTVSS
# VL: QPVLTQPASVSGSPGQSIAISCTGTSSDVGSNNRVSWYQQHPGKAPKLMIYEVDKRPSGVSNRFSGSKSGNTASLTISGLQAEDEADYYCGTWDSSLSAYVFGTGTKLTVL
# notes: tested as human IgG
# Columns and labels:
# murine CXCR5 = biological target: T1, murine CXCR5; experiment: flow cytometry on LPS-cultured mouse spleen cells, IgG titration
# Procedure: In this example, mouse spleen cells were harvested from either C57B1/6 or athymic nu/nu mice. Cells were cultured at 2×10⁶ per ml with LPS at 10 micrograms per ml in RPMI+10% FCS for up to 4 days at 37° C. in 5% CO2. Cells were harvested, washed and resuspended in FACS Buffer (2% Fetal Bovine Serum in PBS) at 1×10⁶ cells/ml and 50 μl (0.5×10⁵ cells) were aliquoted into the wells of a 96-well plate. Plated cells were spun down and the supernatant discarded. Cells were resuspended in 30 μl FACS Buffer containing serially diluted concentrations of CXCR5 IgG in triplicate. Plates were incubated for 1 hr at 4° C. and then washed 2x with FACS Buffer. Cells were resuspended in 50 μl goat anti-human IgG (γ-chain specific)-PE conjugated secondary antibody (Southern Biotech #2040-09) diluted 1:500 in FACS Buffer. Cells were further incubated for 30 min at 4° C. and then washed 1× with FACS Buffer. The cells were resuspended in a final volume of 30 μl FACS Buffer and analyzed using the Intellicyt Flow Cytometer. Median fluorescence in the FL-2H channel was determined using FlowJo software and EC₅₀ value was determined by plotting the data in GraphPad Prism and analyzing using a variable slope non-linear regression.
# human CXCR5 [1] = biological target: T2, human CXCR5; experiment: flow cytometry on CHO-CXCR5 cells, IgG titration
# Excerpt: This example describes a cellular binding assay to determine the EC₅₀ for anti-CXCR5 antibodies binding to human CXCR5. […] In this example, CHO-CXCR5 cells were lifted from culture flasks using non-enzymatic Cell Dissociation Buffer—PBS based (Life Technologies #13151-014). Cells were resuspended in FACS Buffer (2% Fetal Bovine Serum in PBS) at 1×10⁶ cells/ml and […] were aliquoted into the wells of a 96-well plate. Plated cells were spun down and the supernatant discarded. Cells were resuspended in 30 μl FACS Buffer serially diluted concentrations of CXCR5 IgG in triplicate. Plates were incubated for 1 hr at 4° C. and then washed 2× with FACS Buffer. Cells were resuspended in 50 μl goat anti-human IgG (γ-chain specific)-PE conjugated secondary antibody (Southern Biotech #2040-09) diluted 1:500 in FACS Buffer. Cells were further incubated for 30 min at 4° C. and then washed 1× with FACS Buffer. The cells were resuspended in a final volume of 30 μl FACS Buffer and analyzed using the Intellicyt Flow Cytometer. Median fluorescence in the FL-2H channel was determined using FlowJo software and EC₅₀ value was determined by plotting the data in GraphPad Prism and analyzing using a variable slope non-linear regression.
# human CXCR5 [2] = biological target: T2, human CXCR5; experiment: cell-based or functional assay
# human CXCR5 [3] = biological target: T2, human CXCR5; experiment: cell-based or functional assay; remark: listed apart in the source
Binder,EC50 (murine CXCR5) [nM],EC50 (human CXCR5 [1]) [nM],IC50 [nM] of mAbs in calcium flux assay using CHO-CXCR5 cells (challenge with 9 nM CXCL13) (human CXCR5 [2]) [nM],IC50 [nM] of mAbs in chemotaxis assay using HS-Sultan cells (25 nM CXCL13) (human CXCR5 [3]) [nM]
B1,37,2.6,–,–
B2,11,1.8,–,–
B3,25,0.7,–,–
B4,2.8,0.3,–,–
B5,5.5,0.9,–,–
B6,15,3.6,–,–
B7,23,1.6,–,–
B8,–,12,–,–
B9,–,0.9,5,4.8
B10,2.5,0.5,–,–
B11,4.8,0.4,–,–
B12,–,2.1,–,–
B13,3.1,0.7,–,–
B14,27,1.3,–,–
